Measured values reported in US20250154283A1 (published 2025).
Residue numbers refer to the chain shown, from its start.

T1: biotinylated cynomolgus monkey VWF cysteine knot (CK) domain construct (cynomolgus monkey, biotinylated in vitro (BirA) on the biotinylation tag; one N-glycan)
T1 construct: Expressed in HEK293 EBNA cells; disulfide-linked homodimer; also called cyno VWF CK; cyno VWF CK domain; not shown: in vitro biotinylation tag, HRV-3C site and 3 VWF residues before the CK domain
T1 chain: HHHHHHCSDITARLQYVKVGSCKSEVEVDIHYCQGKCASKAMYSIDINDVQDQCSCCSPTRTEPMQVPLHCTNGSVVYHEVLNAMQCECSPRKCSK

B1: 7046_Lib8_scFv (scFv)
scFv: EVQLVESGGGLVQPGRSLRLSCAASGFNFHNYDMHWVRQAPGKGLEWVSAISGSGYTADYADSVEGRFTISRDNAKNSLYLQMNSLRAEDTAVYYCAKSHSSGWSSAFDIWGQGTMVTVSSSGGSTITSYNVYYTKLSSSGTDIQMTQSPSSLSASVGDRVTITCRASQTIGYWLAWYQQKPGKAPKLLIYDATNLATGVPSRFSGSGSGTDFTLTISSLQPEDVATYYCQHYNPYSQVTFGGGTKVEIK
notes: VH-linker-VL; not shown: C-terminal 3xFLAG and SV5 tags
B2: Lib1_P1_A6_scFv (scFv)
scFv: QVQLVQSGAEVKKPGASVKVSCKVSGSTFSNYAIHWVRQAPGKGLEWMGGIVPLSGTAIYAQKFQGRVTMTEDTSTDTAYMELSSLKSEDTAVYYCARDQGESSGWYAIYYGMDVWGQGTTVTVSSSGGSTITSYNVYYTKLSSSGTDIQMTQSPSSVSASVGDRVTITCRASQGIGTWLAWYQQKPGKAPKLLIYGSSSRASGVPSRFSGSGSGTDFTLTISSLQPEDFANYYCQQSYGKPTFGGGTKVEIK
notes: as for B1
B3: 5802_Lib4_scFv (scFv)
scFv: QVQLQESGPGLVKPSQTLSLTCTVSGYSISSGDYHWSWIRQPPGKGLEWIGYINPSGSADYNPSLKSRVTMSVDTSKNQFSLKVNSVTAADTAVYYCARDGVAATYYYYYGMDVWGQGTTVTVSSSGGSTITSYNVYYTKLSSSGTEIVMTQSPATLSLSPGERATLSCRASHSIGSNLAWYQQKPGQAPRLLIYDATTRATGIPARFSGSGSGTDFTLTISSLEPEDFAVYYCQQAYSFPLTFGGGTKVEIK
notes: as for B1
B4: 1374_Lib8_scFv (scFv)
scFv: EVQLVESGGGLVQPGRSLRLSCAASGVDFSTYAMHWVRQAPGKGLEWVSAISSSGAYTDYADSVEGRFTISRDNAKNSLYLQMNSLRAEDTAVYYCATDRGPFSGYGTQGWFDPWGQGTLVTVSSSGGSTITSYNVYYTKLSSSGTDIQMTQSPSSLSASVGDRVTITCRASQTIRSYLAWYQQKPGKAPKLLIYGASDLQSGVPSRFSGSGSGTDFTLTISSLQPEDVATYYCQQYANFPITFGGGTKVEIK
notes: as for B1
B5: 1405_Lib8_scFv (scFv)
scFv: B4 scFv with Q173R, T174D, R176T, G196H, D199T, Q201E, S202A, A238G, N239D, I242P
notes: as for B1
B6: 9301_Lib8_scFv (scFv)
scFv: EVQLVESGGGLVQPGRSLRLSCAASGFNFHNYDMHWVRQAPGKGLEWVSAISGSGYTADYADSVEGRFTISRDNAKNSLYLQMNSLRAEDTAVYYCAKSHSSGWSSAFDIWGQGTMVTVSSSGGSTITSYNVYYTKLSSSGTDIQMTQSPSSLSASVGDRVTITCRASQTIGYWLAWYQQKPGKAPKLLIYDASVPESGVPSRFSGSGSGTDFTLTISSLQPEDVATYYCQQTLSSPWTFGGGTKVEIK
notes: as for B1
B7: 9621_Lib8_scFv (scFv)
scFv: EVQLVESGGGLVQPGRSLRLSCAASGFSFSMYAMHWVRQAPGKGLEWVSAISPSGDATDYADSVEGRFTISRDNAKNSLYLQMNSLRAEDTAVYYCARGMQDYGHYYYYYMDVWGKGTTVTVSSSGGSTITSYNVYYTKLSSSGTDIQMTQSPSSLSASVGDRVTITCRASQDISTSLAWYQQKPGKAPKLLIYGASSLETGVPSRFSGSGSGTDFTLTISSLQPEDVATYYCQQGYIAPRTFGGGTKVEIK
notes: as for B1
B8: Lib4_P2_H3_scFv (scFv)
scFv: QVQLQESGPGLVKPSQTLSLTCTVSGSTFGDYAWSWIRQPPGKGLEWIGYINHIGNADYNPSLKSRVTMSVDTSKNQFSLKVNSVTAADTAVYYCARDGVESPEVPNYYYYGMDVWGQGTTVTVSSSGGSTITSYNVYYTKLSSSGTEIVMTQSPATLSLSPGERATLSCRASHSIGSNLAWYQQKPGQAPRLLIYDATNRAPGIPARFSGSGSGTDFTLTISSLEPEDFAVYYCQQSYTNPTFGGGTKVEIK
notes: as for B1
B9: 8226_Lib8_scFv (scFv)
scFv: EVQLVESGGGLVQPGRSLRLSCAASGFNFHNYDMHWVRQAPGKGLEWVSAISGGAVSTDYADSVEGRFTISRDNAKNSLYLQMNSLRAEDTAVYYCARSSWYGGQIDFWGQGTLVTVSSSGGSTITSYNVYYTKLSSSGTDIQMTQSPSSLSASVGDRVTITCRASQDISGWLAWYQQKPGKAPKLLIYAASSLQDGVPSRFSGSGSGTDFTLTISSLQPEDVATYYCQQSYRIPSTFGGGTKVEIK
notes: as for B1
B10: 1081_Lib8_scFv (scFv)
scFv: EVQLVESGGGLVQPGRSLRLSCAASGFNFHNYDMHWVRQAPGKGLEWVSAISGGAVSTDYADSVEGRFTISRDNAKNSLYLQMNSLRAEDTAVYYCARSSWYGGQIDFWGQGTLVTVSSSGGSTITSYNVYYTKLSSSGTDIQMTQSPSSLSASVGDRVTITCRASESVSSWLAWYQQKPGKAPKLLIYGASTLEGGVPSRFSGSGSGTDFTLTISSLQPEDVATYYCQQAYRTPVTFGGGTKVEIK
notes: as for B1
B11: Lib8_P4_C10_scFv (scFv)
scFv: EVQLVESGGGLVQPGRSLRLSCAASGFNFHNYDMHWVRQAPGKGLEWVSAISGSSDTMDYADSVEGRFTISRDNAKNSLYLQMNSLRAEDTAVYYCVRASWYGTFFDYWGQGTLVTVSSSGGSTITSYNVYYTKLSSSGTDIQMTQSPSSLSASVGDRVTITCRASQDISGWLAWYQQKPGKAPKLLIYAASSLQDGVPSRFSGSGSGTDFTLTISSLQPEDVATYYCQQSYRIPSTFGGGTKVEIK
notes: as for B1
B12: Lib4_P2_A5_scFv (scFv)
scFv: QVQLQESGPGLVKPSQTLSLTCTVSGSSISSSSDYWSWIRQPPGKGLEWIGYIDISGDADYNPSLKSRVTMSVDTSKNQFSLKVNSVTAADTAVYYCARHLSSGWYGTYYFDYWGQGTLVTVSSSGGSTITSYNVYYTKLSSSGTEIVMTQSPATLSLSPGERATLSCRASQNIHSNLAWYQQKPGQAPRLLIYDASSRATGIPARFSGSGSGTDFTLTISSLEPEDFAVYYCQQGYTKPLTFGGGTKVEIK
notes: as for B1
B13: Lib1_P1_D1_scFv (scFv)
scFv: QVQLVQSGAEVKKPGASVKVSCKVSGDTFTDRYIHWVRQAPGKGLEWMGGINTIFGTAIYAQKFQGRVTMTEDTSTDTAYMELSSLKSEDTAVYYCAREGATVSTNFDYWGQGTLVTVSSSGGSTITSYNVYYTKLSSSGTDIQMTQSPSSVSASVGDRVTITCRASQDIRKSLAWYQQKPGKAPKLLIYDISNRPSGVPSRFSGSGSGTDFTLTISSLQPEDFANYYCQQGYSAPYGFGGGTKVEIK
notes: as for B1
B14: Lib1_P1_C6_scFv (scFv)
scFv: QVQLVQSGAEVKKPGASVKVSCKVSGYTFASHYIHWVRQAPGKGLEWMGGMDPATGQTIYAQKFQGRVTMTEDTSTDTAYMELSSLKSEDTAVYYCAKGDRSSWYEVLSFQHWGQGTLVTVSSSGGSTITSYNVYYTKLSSSGTDIQMTQSPSSVSASVGDRVTITCRASQGISTDLAWYQQKPGKAPKLLIYDASILQRGVPSRFSGSGSGTDFTLTISSLQPEDFANYYCQQVRTYPFTFGGGTKVEIK
notes: as for B1
B15: 4142_Lib1_scFv (scFv)
scFv: QVQLVQSGAEVKKPGASVKVSCKVSGYPFTSSGIHWVRQAPGKGLEWMGGVIPLFGTANYAQKFQGRVTMTEDTSTDTAYMELSSLKSEDTAVYYCARIRVSSGWYRDYGMDVWGQGTTVTVSSSGGSTITSYNVYYTKLSSSGTDIQMTQSPSSVSASVGDRVTITCRASQDITNDLAWYQQKPGKAPKLLIYDASRLQSGVPSRFSGSGSGTDFTLTISSLQPEDFANYYCQQTFTTPLTFGGGTKVEIK
notes: as for B1
B16: Lib1_P1_A2_scFv (scFv)
scFv: QVQLVQSGAEVKKPGASVKVSCKVSEGTLSRHYINWVRQAPGKGLEWMGGINAKSGATIYAQKFQGRVTMTEDTSTDTAYMELSSLKSEDTAVYYCAKDTGDDILTDYSDAFDIWGQGTMVTVSSSGGSTITSYNVYYTKLSSSGTDIQMTQSPSSVSASVGDRVTITCRASQNIGTSLAWYQQKPGKAPKLLIYGASNLESGVPSRFSGSGSGTDFTLTISSLQPEDFANYYCLQYNDWPPLYSFGGGTKVEIK
notes: as for B1
B17: 16_Lib8_scFv (scFv)
scFv: EVQLVESGGGLVQPGRSLRLSCAASGFRFDEYDMHWVRQAPGKGLEWVSAISSESASIDYADSVEGRFTISRDNAKNSLYLQMNSLRAEDTAVYYCARDGAYGDYFDYWGQGTMVTVSSSGGSTITSYNVYYTKLSSSGTDIQMTQSPSSLSASVGDRVTITCRASQDIKSWLAWYQQKPGKAPKLLIYGASTLQSGVPSRFSGSGSGTDFTLTISSLQPEDVATYYCQQSYSAPYTFGGGTKVEIK
notes: as for B1
B18: Lib4_P2_A11_scFv (scFv)
scFv: QVQLQESGPGLVKPSQTLSLTCTVSGVTFSSYGWSWIRQPPGKGLEWIGYVDTSGSTDYNPSLKSRVTMSVDTSKNQFSLKVNSVTAADTAVYYCARTTYYYDSSGFARGWFDPWGQGTLVTVSSSGGSTITSYNVYYTKLSSSGTEIVMTQSPATLSLSPGERATLSCRASRSISTNLAWYQRKPGQAPRLLIYDTSNRAPGIPARFSGSGSGTDFTLTISSLEPEDFAVYYCLQYDVSPYTFGGGTKVEIK
notes: VH-linker-VL; also called Lib4_P2_All; not shown: C-terminal 3xFLAG and SV5 tags

Assays:
[1] = target: T2, biotinylated human VWF cysteine knot (CK) domain construct (human, UniProt P04275 2724-2813, biotinylated in vitro (BirA) on the biotinylation tag; one N-glycan); assay: SPR, scFv captured via anti-SV5, CK domain injected, pH 5.5, apparent Kd;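 further: scFvs from crude yeast supernatants captured on chip-bound anti-SV5 antibody, Kd computed as koff divided by kon, dimeric CK construct likely makes affinity appear higher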
T2 construct: Expressed in HEK293 EBNA cells; disulfide-linked homodimer; also called human VWF CK; human VWF CK domain; not shown: in vitro biotinylation tag, HRV-3C site and 3 VWF residues before the CK domain

[2] = target: T2, biotinylated human VWF cysteine knot …; assay: SPR, scFv captured via anti-SV5, CK domain injected, pH 7.4, apparent Kd;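 further: scFvs from crude yeast supernatants printed on an amine-coupled anti-SV5 lawn, Kd computed as koff over kon, likely overestimating affinity because the CK construct is dimeric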
[3] = target: T1, biotinylated cynomolgus monkey VWF …; assay: as above

Row | Binder | Kd [1] [pM] | Kd [2] [pM] | Kd [3] [pM]
1 | B1 | 1160 | 88 | 2
2 | B2 | 45 | 92 | 59
3 | B3 | 1090 | 101 | 16
4 | B4 | 43 | 116 | 61
5 | B5 | 389 | 305 | 39
6 | B6 | 39 | 167 | 684
7 | B7 | 2280 | 217 | 137
8 | B8 | 75 | 307 | 134
9 | B9 | 1380 | 3170 | 550
10 | B10 | 274 | 391 | 167
11 | B11 | 487 | 3150 | 1010
12 | B12 | 123 | 493 | 128
13 | B13 | 338 | 589 | 187
14 | B14 | 1430 | 691 | 697
15 | B15 | 634 | 839 | 999
16 | B16 | 76 | 1780 | –
17 | B17 | 1050 | 2110 | –
18 | B18 | 33 | 3110 | –
